Source: patent publication US20060257406A1 (published 2006)
Positions count from the first letter of the chain named.

B1: TAR1-5d1 (other)
chain: DIQMTQSPSSLSASVGDRVTITCRASQSIFMNLLWYQQKPGKAPKLLIYNASVLQSGVPSRFSGSGSGTDFTLTISSLQPEDFATYYCQQVVWRPFTFGQGTKVEIKRGGGGSGGGGSGGGGSDIQMTQSPSSLSASVGDRVTITCRASQSIYDALEWYQQKPGKAPKLLIYTASRLQSGVPSRFSGSGSGTDFTLTISSLQPEDFATYYCQQVMQRPVTFGQGTKVEIK
notes: dAb-linker-dAb dimer; FPLC purified small dimeric species; also called dimer 1
B2: TAR1-5d5 (other)
chain: DIQMTQSPSSLSASVGDRVTITCRASQSIFMNLLWYQQKPGKAPKLLIYNASVLQSGVPSRFSGSGSGTDFTLTISSLQPEDFATYYCQQVVWRPFTFGQGTKVEIKRGGGGSGGGGSGGGGSGGGGSGGGGSDIQMTQSPSSLSASVGDRVTITCRASQSIYDALEWYQQKPGKAPKLLIYTASRLQSGVPSRFSGSGSGTDFTLTISSLQPEDFATYYCQQVMQRPVTFGQGTKVEIK
notes: FPLC purified large dimeric species; also called dimer 5
B3: TAR1-5d4 (other)
chain: DIQMTQSPSSLSASVGDRVTITCRASQSIFMNLLWYQQKPGKAPKLLIYNASVLQSGVPSRFSGSGSGTDFTLTISSLQPEDFATYYCQQVVWRPFTFGQGTKVEIKRGGGGSGGGGSGGGGSGGGGSGGGGSDIQMTQSPSSLSASVGDRVTITCRASQSVKEFLWWYQQKPGKAPKLLIYMASNLQSGVPSRFSGSGSGTDFTLTISSLQPEDFATYYCQQKFKLPRTFGQGTKVEIK
notes: FPLC purified small dimeric species; also called TAR1-5 dimer 4
B4: TAR1-5d6 (other)
chain: DIQMTQSPSSLSASVGDRVTITCRASQSIFMNLLWYQQKPGKAPKLLIYNASVLQSGVPSRFSGSGSGTDFTLTISSLQPEDFATYYCQQVVWRPFTFGQGTKVEIKRGGGGSGGGGSGGGGSGGGGSGGGGSGGGGSGGGGSDIQMTQSPSSLSASVGDRVTITCRASQSIYDALEWYQQKPGKAPKLLIYTASRLQSGVPSRFSGSGSGTDFTLTISSLQPEDFATYYCQQVMQRPVTFGQGTKVEIK
notes: FPLC purified large dimeric species; also called dimer 6
B5: TAR1-5-19CH/dAb1 CK (Fab, V domains shown)
V domain 1: DIQMTQSPSSLSASVGDRVTITCRASQSIDSYLHWYQQKPGKAPKLLIYSASELQSGVPSRFSGSGSGTDFTLTISSLQPEDFATYYCQQVVWRPFTFGQGTKVEIK
V domain 2: B5 V domain 1 with D30Y, S31D, Y32A, H34E, S50T, E53R, V92M, W93Q, F96V
notes: also called TAR1-5-19CH d1CK
B6: TAR1-5-19CH/dAb3CK (Fab, V domains shown)
V domain 1: B5 V domain 1
V domain 2: DIQMTQSPSSLSASVGDRVTITCRASQSVKEFLWWYQQKPGKAPKLLIYMASNLQSGVPSRFSGSGSGTDFTLTISSLQPEDFATYYCQQKFKLPRTFGQGTKVEIK
notes: also called TAR1-5-19CH d3CK
B7: TAR1-5CH/dAb1 CK (Fab, V domains shown)
V domain 1: B5 V domain 1 with D30F, S31M, Y32N, H34L, S50N, E53V
V domain 2: B5 V domain 1 with D30Y, S31D, Y32A, H34E, S50T, E53R, V92M, W93Q, F96V
B8: dAb3CH/TAR1-5CK (Fab, V domains shown)
V domain 1: B6 V domain 2
V domain 2: B5 V domain 1 with D30F, S31M, Y32N, H34L, S50N, E53V
notes: also called TAR1-5CK d3CH
B9: dAb1 CH/TAR1-5-19CK (Fab, V domains shown)
V domain 1: B5 V domain 1 with D30Y, S31D, Y32A, H34E, S50T, E53R, V92M, W93Q, F96V
V domain 2: B5 V domain 1
notes: also called TAR1-5-19CK d1CH
B10: TAR1-5-19 d1 (other)
chain: B1 chain with F30D, M31S, N32Y, L34H, N50S, V53E

These binders were tested against T1, human TNFα (human, UniProt P01375 77-233) (assay: TNF receptor assay (ELISA): inhibition of TNF binding to plate-bound TNF receptor 1-Fc).
T1 construct: also called TAR1; TNF alpha
T1 sequence (P01375 77-233 limits assumed): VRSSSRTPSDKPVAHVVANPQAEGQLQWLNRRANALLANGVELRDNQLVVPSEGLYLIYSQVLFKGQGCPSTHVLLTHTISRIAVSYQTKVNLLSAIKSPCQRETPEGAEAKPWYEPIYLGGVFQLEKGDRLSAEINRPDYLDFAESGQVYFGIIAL

In order of rising IC50:
1. B3  ~3 nM
2. B1  ~30 nM
3. B4  ~100 nM
4. B2  ~200 nM

Molecular target: T1, human TNFα
Test: as above
Remark: another data set of the same source

In order of falling IC50:
1. B8  ~100 nM
2. B7  ~90 nM
3. B5  ~6 nM
4. B9  ~6 nM
5. B6  ~3 nM

Molecular target: T1, human TNFα
Test: as above
Remark: another data set of the same source

B10 was tested, and the IC50 was ~15 nM.
